According to the nanobody polyreactivity screen of Harvey et al. (2022):

Assay: yeast display, Sf9 membrane polyspecificity reagent, FACS + sequencing; frameworks hold sequencing errors
Procedure, shortened: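 Galactose-induced (36–48 hours) yeast carrying a synthetic nanobody display library were exposed to 10% biotinylated, detergent-solubilized Sf9 membrane reagent at 4 °C for 1 hour. FACS followed streptavidin microbead enrichment, using low and high (top ~1%) gates for expression (anti-HA) and reagent binding (streptavidin). Colony PCR, MiSeq 2 × 250 sequencing and CDR-length filtering followed. Labels for polyreactivity reflect the gate of origin.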
With “QVQLVESGGGLVQAGGSLRLSCAASGSIFLGNAMGWYRQAPGKESELVAAISSITGRTYYADSVKGRFTISRDNAKNTVYLQMNSLKPEDTAVYYCNKVKRSFIVNTDDYWGQGTQVTVSS” the “polyreactivity (PSR sort gate)” value was “high polyreactivity”. In the case of “QVQLVESGGGLVQAGGSLRLSCAASGSIFLGYAMGWYRQAPGKERELVATITSSGSTSYADSVKGRFTISRDNAKNTVYLQMKSLKPEDTAVYFCNTDLFQYGVNHYEYWGQGTQVTVSS”, the “polyreactivity (PSR sort gate)” value is reported as “high polyreactivity”. With “QVQLVESGGGLVQAGGSLRLSCAASGSIFLHNAMGWYRQAPGKERELVAGITSSGTSTYYADSVKGRFTISRDNEKNTVYLQMNSLKPEDTAVYYCAAYRYGSRGGYCGQGTQVTVSS” the “polyreactivity (PSR sort gate)” value was “high polyreactivity”. With “QVQLVESGGGLVQAGGSLRLSCAASGSIFLHNAMGWYRQAPGKERELVAVITSRGGSTYYADSVKGRLTISRDNAKNTVYLQMKSLKPEDTAVYYCAAPAYHKRTSRGDYWGQGTQVTVSS” the “polyreactivity (PSR sort gate)” value was “low polyreactivity”. With “QVQLVESGGGLVQAGGSLRLSCAASGSIFLHYAMGWYRQAPGKERELVAAISRSGGRTYYADSVKGRFTISRDNAKNTVYLQMNSLKPEDTAVYYCAARVPRYRKDSVWAYYYWGQGPQVTVSS” the “polyreactivity (PSR sort gate)” value was “high polyreactivity”. In the case of “QVQLVESGGGLVQAGGSLRLSCAASGSIFLINAMGWYRPAPGKERELVAAITWSGGRTYYADSVKGRFTISRDNAKNTVYLQMNSLKPEDTAVYYCATRKRRSRPPTYDYWGQGTQVTVSS”, the “polyreactivity (PSR sort gate)” value is reported as “high polyreactivity”. With “QVQLVESGGGLVQAGGSLRLSCAASGSIFLIYAMGWYRQAPGKERELVATINRGDNTYYADSVKGRFTISRDNAKNTVYLQMNSLKPEDTAVYYCAARAYDLGYAGYDYWGQGTQVTVSS” the “polyreactivity (PSR sort gate)” value was “low polyreactivity”. In the case of “QVQLVESGGGLVQAGGSLRLSCAASGSIFLIYARGSYRQAPGKERELVAAISGRVGSTYYADSVKGRFTISRDNAINTVYLQMNSLKPEDTAVYYCAARNSYGNWRYYYWGQGTQVTVSS”, the “polyreactivity (PSR sort gate)” value is reported as “high polyreactivity”. In the case of “QVQLVESGGGLVQAGGSLRLSCAASGSIFLKYVMGWYRQAPGKERELVAAISFRSGSTYYADSVKGRFTISRDNAKNTVYLQMNSLKPEDTAVYYCAADAWRSYGYRAYDYWGQGTQVTVSS”, the “polyreactivity (PSR sort gate)” value is reported as “high polyreactivity”. With “QVQLVESGGGLVQAGGSLRLSCAASGSIFLLYAMGWYSQAPGKVRELVAAISRSGDSTHYADSVKGRFTISRDNAKNTVYLQMNSLKPEDTAVYYCAADGYDPYGGLYDYWGQGTQVTVSS” the “polyreactivity (PSR sort gate)” value was “low polyreactivity”. In the case of “QVQLVESGGGLVQAGGSLRLSCAASGSIFLQNAMGWYRQAPGKERELVAAITNGGSTNYADSVKGRFTISRDNAKHTVYLQLNSLKPEDTAVYYCAAYPLYTGSYDRGGYWGQGTQVTVSS”, the “polyreactivity (PSR sort gate)” value is reported as “low polyreactivity”. With “QVQLVESGGGLVQAGGSLRLSCAASGSIFLQNAMGWYRQAPGKERELVAAITNGGSTNYADSVKGRFTISRDNAKNTVYLQMNSLKPEDTAVYYCAAYPLYTGSYDRGGYWGQGTQVTVSS” the “polyreactivity (PSR sort gate)” value was “low polyreactivity”. With “QVQLVESGGGLVQAGGSLRLSCAASGSIFLRNAMGWSRQAPGKERELVAAISRSGGRTYYADSVKGRFTISRDNAKNTVYLQMNSLKPEDTAVYYCAADWADKYTGRYDYWGQGTQVTVSS” the “polyreactivity (PSR sort gate)” value was “high polyreactivity”. For “QVQLVESGGGLVQAGGSLRLSCAASGSIFLSNAMGWYRQAPGKERELVAAISRRGASTYYADSVKGRFTISRDNAKNTVYFQMNSLKPEDTAVYYCAALSYSAYGYNYWGQGTQVTVSS”, the “polyreactivity (PSR sort gate)” value was “high polyreactivity”. With “QVQLVESGGGLVQAGGSLRLSCAASGSIFLTNVMGWYRQAPGKERELVAAISSGGNTYYADSVKGRFTISRDNAKNTVYLQMNSLKPEDTAVYYCAVRYRYDYWGQGTQVTVSS” the “polyreactivity (PSR sort gate)” value was “high polyreactivity”. With “QVQLVESGGGLVQAGGSLRLSCAASGSIFLTYTMGWYRQAPGKERELVAGISSRGGGTYYADSVKGRFTISRDNAKNTVYLQMNSLKPEDTAVYYCAAAIGYPHYWGRRKFYYWGQGTQVTVSS” the “polyreactivity (PSR sort gate)” value was “low polyreactivity”. In the case of “QVQLVESGGGLVQAGGSLRLSCAASGSIFLVNAMGWYRQAPGERKELVAAISWSSGSTYYADSVKGRFTNSRDNAKNTVYLQMNSLKPEDTAVYYCAKRSSITYRYDYWGQGTQVTVSS”, the “polyreactivity (PSR sort gate)” value is reported as “high polyreactivity”. In the case of “QVQLVESGGGLVQAGGSLRLSCAASGSIFLVYALGWYRQAPGKERELVATITRGGGTYYADSVKGRFTISGDNAKNTVYLQMNSLKPEDTAVSYCAYPLSRTWGNYLAWSYPRDDSWGQGTQVTVSS”, the “polyreactivity (PSR sort gate)” value is reported as “high polyreactivity”. With “QVQLVESGGGLVQAGGSLRLSCAASGSIFLVYAMGWYRQAPGKERELVAAIRWSGGSTYYADSVKGRFTISRDNAKNTVYLQMNSLKPEDTAVYYCNAGESYSVKGGPYDSDYWGQGTQVTVSS” the “polyreactivity (PSR sort gate)” value was “low polyreactivity”. In the case of “QVQLVESGGGLVQAGGSLRLSCAASGSIFLWNAKGWYRQAPGKERELVAAISSGTSTNYADSVKGRFTISRDNAKNTVYLQMNSLKPEDTAVYYCAARGRKNQRRYGYWGQGTQVTVSS”, the “polyreactivity (PSR sort gate)” value is reported as “low polyreactivity”. With “QVQLVESGGGLVQAGGSLRLSCAASGSIFLYNAMGWYRQAPGKERELVADISWSGGSTYYADSVKGRFTISRDNAKNTVYLQMNSLKPEDTAVYYCNAVVYWFSTSYVYTYDYWGQGTQVTVSS” the “polyreactivity (PSR sort gate)” value was “high polyreactivity”. For “QVQLVESGGGLVQAGGSLRLSCAASGSIFLYNTMGWYRQAPGKERELVAAITSGGNTNYADSVKGRFTISRDNAKNTVYLQMHSLKPEDTAVYYCNVDLKAWLPDGGSVDYWGQGTQVTVSS”, the “polyreactivity (PSR sort gate)” value was “low polyreactivity”. For “QVQLVESGGGLVQAGGSLRLSCAASGSIFLYNTMGWYRQAPGKERELVAAITYSGGSTYYADSVKGRFTISRDNAKNTVYLQMNSLKPEDTAVYYCAARRLPRKERKLYYWGQGTQVTVSS”, the “polyreactivity (PSR sort gate)” value was “high polyreactivity”. For “QVQLVESGGGLVQAGGSLRLSCAASGSIFLYYAMGWYIQATGKERELVATITSGGRTSYADSVKGRFTISRDNAKNTVYLKMNSLKPEDTAVYYCAGRYGWFTPYDYWGQGTQVTVSS”, the “polyreactivity (PSR sort gate)” value was “high polyreactivity”. In the case of “QVQLVESGGGLVQAGGSLRLSCAASGSIFLYYAMGWYRQAPGKERELVAAITGGGGTNYADSVKGRFTISRDNAKNTVYLQMNSLKPEDTAVYYCAADPSGQFPYSYYNYDYDYWGQGTQVTVSS”, the “polyreactivity (PSR sort gate)” value is reported as “low polyreactivity”. In the case of “QVQLVESGGGLVQAGGSLRLSCAASGSIFLYYTMGWYRQAPGKERELVAAITWGGGTTYYADSVKGRFTISRDNAKNTVYLQMNSLKPEDTAVYYCAAEGSYPRMDYWGQGTQVTVSS”, the “polyreactivity (PSR sort gate)” value is reported as “low polyreactivity”. In the case of “QVQLVESGGGLVQAGGSLRLSCAASGSIFLYYTMGWYRQAPGKEREMVAAITSGSSTNYADSVKGRFTISRDNAKNTVYLQMNSLKPEDTAVYYCATQYTLSYPSIDFDYWGQGTQVNVSS”, the “polyreactivity (PSR sort gate)” value is reported as “low polyreactivity”. With “QVQLVESGGGLVQAGGSLRLSCAASGSIFLYYTMGWYRQEPGKERELVAAITWSGASTYYADSVKGRFTISRDNAKNTVYLQMNSLKPEDTAVYYCATRYRYRYWGQGTQVTVSS” the “polyreactivity (PSR sort gate)” value was “high polyreactivity”. For “QVQLVESGGGLVQAGGSLRLSCAASGSIFNANAMGWYRQAPGKERELVAGIRSGSSTNYADSEKGRFTISRDNAKNTVYLQMNSLKPEDTAVYYCATEGYWVYGFDDEYWGQGTQVTVSS”, the “polyreactivity (PSR sort gate)” value was “low polyreactivity”. With “QVQLVESGGGLVQAGGSLRLSCAASGSIFNAYDMGWYRQAPGKERELVAGISSSDSTYYADSVKGRFTISRDNAKNTVYLQMNSLKPEDTAVYYCAADPVFAAAYIHLYGIYDSWGQGTQVTVSS” the “polyreactivity (PSR sort gate)” value was “low polyreactivity”. For “QVQLVESGGGLVQAGGSLRLSCAASGSIFNDYAMGWYRQAPGKERELVAAITSSDGRTFYADSVKGRFTISRDNAKNTVYLQMNSLKPEDTAVYYCAAEWTSRYSTYEYWGQGTQVTVSS”, the “polyreactivity (PSR sort gate)” value was “low polyreactivity”. For “QVQLVESGGGLVQAGGSLRLSCAASGSIFNENPMGSYRQAPGKERELVAVITHRTGSTYYADSVKGRFTISRDNAKYTFYLQLTSLTPEDTAVYYCATRTRRNRYRGGEYDYWGQGTQVTVSS”, the “polyreactivity (PSR sort gate)” value was “low polyreactivity”. In the case of “QVQLVESGGGLVQAGGSLRLSCAASGSIFNGNAMGWYRQAPGKERELVARITSGSSTYYADSVKGRFTISRDNAKNTVYLQMNSLKPEDTAVYYCAAVYGRYISYRWRSLYDYWGQGTQVTVSS”, the “polyreactivity (PSR sort gate)” value is reported as “high polyreactivity”. With “QVQLVESGGGLVQAGGSLRLSCAASGSIFNGYDMGWYRQAPGKERELVAAISLSGDSTYYADSVKGRFTISRDYAKKTVYLQMNSLKPEDTAVYYCAAADYFRSYWGQGTQVTVSS” the “polyreactivity (PSR sort gate)” value was “low polyreactivity”. With “QVQLVESGGGLVQAGGSLRLSCAASGSIFNINAMGWYRQAPGKERELVAAISKRGGSTYYADSVKGRFTISRDNAKNTVYLQLNSLKPEDTAVYYCAADLTGVDYDYWGQGTQVTVSS” the “polyreactivity (PSR sort gate)” value was “high polyreactivity”. With “QVQLVESGGGLVQAGGSLRLSCAASGSIFNLYAMGWYRQAPGKERELVAAIRWSGGSTYYADSVKGRFTISRDNAKNTVYLKMKSMKPEDTAVYYCNAEWKSYRVPKFEYWGQGTQVTVSS” the “polyreactivity (PSR sort gate)” value was “low polyreactivity”. For “QVQLVESGGGLVQAGGSLRLSCAASGSIFNLYAMGWYRQAPGKERELVAGIRWSGGRTYYADSVKGRFTISRDNAKNTVYLQMNSLKPEDTAVYYCNAGGYLSWWNDYDYWGQGTQVTVSS”, the “polyreactivity (PSR sort gate)” value was “high polyreactivity”. For “QVQLVESGGGLVQAGGSLRLSCAASGSIFNLYAMGWYRQAPGKERELVATITWSGGSTYYADSVKGRFTISRDNAKNTVYLQMNSLKPEDTAVYYCAATALEWYPAVYNQYYYWGQGTQVTVSS”, the “polyreactivity (PSR sort gate)” value was “low polyreactivity”. With “QVQLVESGGGLVQAGGSLRLSCAASGSIFNPYVMGWYRQAPGKERELVAAISSSGGRTYYADSVKGRFTLSRDNAKNTVDFQMNSLKPEDTAVYYCAAKPRQGYDYWGQGTQVTVSS” the “polyreactivity (PSR sort gate)” value was “high polyreactivity”. With “QVQLVESGGGLVQAGGSLRLSCAASGSIFNRNAMGWYRQAPGKERELVATITRNGGRTYYADSVKGRFTISRDNAKNTVYLQMNSLKPEDTAVYYCNAVRQRLRPGNLFDLDYWGQGTQVTVSS” the “polyreactivity (PSR sort gate)” value was “low polyreactivity”. In the case of “QVQLVESGGGLVQAGGSLRLSCAASGSIFNRYSMGWYRQEPGKERELVASIRGTGSTYYADSVKGRFTISRDNAKNTVYLQMNSLKPEDTAVDYCAARPGYLYSKYNYWGQGTQVTVSS”, the “polyreactivity (PSR sort gate)” value is reported as “high polyreactivity”. In the case of “QVQLVESGGGLVQAGGSLRLSCAASGSIFNSYAMGWYRQAPGKERELVAAISSGGGRTYYAVSVKGRFKISRDNAKNTVYLQMNSLKPEDTAVYYCAKYYRAFIRDYNYWGQGTQVTVSS”, the “polyreactivity (PSR sort gate)” value is reported as “high polyreactivity”. In the case of “QVQLVESGGGLVQAGGSLRLSCAASGSIFNTYAMGWYRQAPGKERELVAAITWSGGSTYYADSVKGRFTISRDNAKNTVYLQMNSLKPEDTAVYYCAARQRRQSYWGQGTQVTVSS”, the “polyreactivity (PSR sort gate)” value is reported as “high polyreactivity”.
